From patent US20140235820A1, “METHODS AND COMPOSITIONS FOR MODULATING THE Wnt PATHWAY” (Genentech, Inc., priority 2010, published 2014)
One block for each molecule: values may come before it.

Experiments:
[1] = tested on: LRP6; experiment: Competition binding between Dkk1 and other Wnt pathway inhibitors (preloaded Dkk1); parameters: species or system human; conditions: Dkk1 100 nM preloaded, test ligand 100 nM
Experimental: FIG. 8. Competition binding between Dkk1 and other Wnt pathway inhibitors. The indicated LRP6 construct was preloaded onto biosensor tips. Dkk1 (100 nM) (or buffer control) and the test ligand (100 nM) were loaded sequentially onto the LRP6 tips. (A) Dkk2 competition with Dkk1. (B) Sclerostin competition with Dkk1. Percent binding in the presence of Dkk1 is shown relative to buffer control.
(§1) Binding kinetics were measured by biolayer interferometry using an Octet Red instrument (ForteBio) as previously described (11). Streptavidin (SA) biosensors were loaded with biotinylated hLRP6 in 50 mMTris, pH 8, 300 mM NaCl, 5% (v/v) glycerol, and 0.05% (w/v) Triton X-100. The loaded biosensors were washed in the same buffer before carrying out association and dissociation measurements for the indicated times. The Kd of each interaction was determined using steady state-analysis through the Octet Red software v6.3. Each reported value represents an average of three or more experiments at different concentrations, with a fitted experimental curve for which the square of the correlation coefficient (R^2) is above 0.96.
To assess whether Dkk1, Dkk2, and sclerostin might bind to the same site on LRP6 E1, Dkk2 or sclerostin binding was measured in the presence of preloaded Dkk1 (100 nM). […]

[2] = target: T1, human LRP6 construct E1E2 (amino acids A20-E631) (human, UniProt O75581 20-631, biotinylated for biolayer interferometry); experiment: BLI affinity
T1 construct: range 20-631; also called LRP6 E1E2
T1 sequence (looked up): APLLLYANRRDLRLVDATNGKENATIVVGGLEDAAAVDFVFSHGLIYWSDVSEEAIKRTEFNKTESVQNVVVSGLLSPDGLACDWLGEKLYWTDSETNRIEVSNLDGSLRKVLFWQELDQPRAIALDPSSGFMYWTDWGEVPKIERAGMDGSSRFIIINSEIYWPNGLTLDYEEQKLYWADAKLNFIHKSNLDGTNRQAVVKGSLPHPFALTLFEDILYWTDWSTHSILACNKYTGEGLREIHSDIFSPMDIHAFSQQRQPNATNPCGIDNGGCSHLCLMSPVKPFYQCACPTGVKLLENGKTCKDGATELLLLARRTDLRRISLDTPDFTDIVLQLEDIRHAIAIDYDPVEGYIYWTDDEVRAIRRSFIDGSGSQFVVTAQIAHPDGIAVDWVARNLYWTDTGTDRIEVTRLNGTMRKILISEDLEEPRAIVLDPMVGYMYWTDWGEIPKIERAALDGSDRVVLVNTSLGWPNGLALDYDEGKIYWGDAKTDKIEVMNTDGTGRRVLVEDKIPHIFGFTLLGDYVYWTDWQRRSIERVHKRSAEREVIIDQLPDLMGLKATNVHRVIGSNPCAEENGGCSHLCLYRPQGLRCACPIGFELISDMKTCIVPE
Experimental: as §1, with “(R²)” for “(R^2)”

[3] = target: T1, human LRP6 construct E1E2 (amino acids …); experiment: BLI (FIG. 9B)
Experimental: as §1, with “(R²)” for “(R^2)”

[4] = target: T2, human LRP6 construct E1E4 (amino acids A20-Q1253) (human, UniProt O75581 20-1253, biotinylated for biolayer interferometry); experiment: BLI (FIG. 9B)
T2 construct: range 20-1253; Expressed in Tni insect cells; tags not specified for this construct; also called LRP6 E1E4
T2 sequence (looked up): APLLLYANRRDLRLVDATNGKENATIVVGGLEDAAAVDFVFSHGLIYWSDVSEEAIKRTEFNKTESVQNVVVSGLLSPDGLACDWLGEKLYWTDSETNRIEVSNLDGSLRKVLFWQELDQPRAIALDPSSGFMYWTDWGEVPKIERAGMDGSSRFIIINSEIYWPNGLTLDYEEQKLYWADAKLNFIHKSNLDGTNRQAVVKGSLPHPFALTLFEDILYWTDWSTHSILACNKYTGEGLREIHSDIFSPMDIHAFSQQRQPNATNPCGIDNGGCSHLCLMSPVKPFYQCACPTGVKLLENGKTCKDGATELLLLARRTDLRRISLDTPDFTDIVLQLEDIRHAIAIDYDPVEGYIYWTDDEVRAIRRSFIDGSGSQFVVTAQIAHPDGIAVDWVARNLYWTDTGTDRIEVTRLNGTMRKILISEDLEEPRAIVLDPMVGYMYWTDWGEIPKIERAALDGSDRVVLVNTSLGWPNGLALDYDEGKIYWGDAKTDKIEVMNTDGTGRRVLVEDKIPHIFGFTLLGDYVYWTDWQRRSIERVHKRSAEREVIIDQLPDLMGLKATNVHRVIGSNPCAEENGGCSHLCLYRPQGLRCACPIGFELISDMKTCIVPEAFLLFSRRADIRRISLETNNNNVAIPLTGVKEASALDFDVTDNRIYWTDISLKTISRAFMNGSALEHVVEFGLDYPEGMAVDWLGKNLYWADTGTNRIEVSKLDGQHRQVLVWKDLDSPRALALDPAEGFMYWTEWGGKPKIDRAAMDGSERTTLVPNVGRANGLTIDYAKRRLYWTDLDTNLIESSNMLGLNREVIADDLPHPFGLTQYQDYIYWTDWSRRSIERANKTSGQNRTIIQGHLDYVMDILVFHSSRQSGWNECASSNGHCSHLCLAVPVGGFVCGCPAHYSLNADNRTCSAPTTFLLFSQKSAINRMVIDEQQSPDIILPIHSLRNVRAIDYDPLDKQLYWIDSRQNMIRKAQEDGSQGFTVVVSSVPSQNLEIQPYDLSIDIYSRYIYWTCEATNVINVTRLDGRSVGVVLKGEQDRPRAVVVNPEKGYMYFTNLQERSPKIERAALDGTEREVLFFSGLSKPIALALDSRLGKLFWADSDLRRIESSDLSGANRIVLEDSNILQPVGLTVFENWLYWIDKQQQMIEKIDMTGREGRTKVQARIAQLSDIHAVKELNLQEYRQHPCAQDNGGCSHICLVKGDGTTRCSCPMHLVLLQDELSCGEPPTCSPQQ
Experimental: as §1, with “(R²)” for “(R^2)”

binding to LRP6 in the presence of preloaded Dkk1 [1]: very strongly inhibited
Molecule: sclerostin: Sclerostin protein, Wnt pathway inhibitor, expressed in insect cells (LPNAIGR)

fold loss in affinity against wild-type Dkk1 [2]: > 364 fold
B1: Dkk1 Ile42Glu (ligand, human, UniProt O94907 32-266, looked up)
chain: TLNSVLNSNAEKNLPPPLGGAAGHPGSAVSAAPGILYPGGNKYQTIDNYQPYPCAEDEECGTDEYCASPTRGGDAGVQICLACRKRRKRCMRHAMCCPGNYCKNGICVSSDQNHFRGEIEETITESFGNDHSTLDGYSRRTTLSSKMYHTKGQEGSVCLRSSDCASGLCCARHFWSKICKPVLKEGQVCTKHRRKGSHGLEIFQRCYCGEGLSCRIQKDHHQASNSSRLHTCQRH
notes: also called Dkk1 I42E

binding result [3]: binds | binding result [4]: binds
B2: Dkk1 K211E (ligand, human, UniProt O94907 32-266, looked up)
chain: TLNSVLNSNAIKNLPPPLGGAAGHPGSAVSAAPGILYPGGNKYQTIDNYQPYPCAEDEECGTDEYCASPTRGGDAGVQICLACRKRRKRCMRHAMCCPGNYCKNGICVSSDQNHFRGEIEETITESFGNDHSTLDGYSRRTTLSSKMYHTKGQEGSVCLRSSDCASGLCCARHFWSKICEPVLKEGQVCTKHRRKGSHGLEIFQRCYCGEGLSCRIQKDHHQASNSSRLHTCQRH
notes: also called Dkk1 Lys211Glu
